Results taken from patent publication US20250197490A1 (HBM ALPHA THERAPEUTICS, published 2025).
Several values for one entry are separate records, joined by “and”; a condition that tells them apart may be missing. Identical values can stand only once.

T1: corticotropin-releasing hormone (CRH) peptide (human and mouse, UniProt P01143 145-185 (rat entry), not fully specified)
T1 peptide: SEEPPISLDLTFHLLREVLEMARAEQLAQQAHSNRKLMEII


Molecular target: T1, corticotropin-releasing hormone (CRH) …
Experiment: cell-based or functional assay

| Binder | hCRHR1-Luc 0.5 nM CRH IC50 |
| --- | --- |
| PR302341-3 (antibody, human IgG1, kappa, V domains shown) VH: EVQLQQSGPELVKPGASVKMSCKASGYTFTDYFMKWVKQSHGESLEWIGVINPNNGDIFYNQKFKGKATLTVDKSSSTAFMQLNSLTSEDSAVYSCARGTDRALFAYWGQGTLVAVSA VL: DIVMTQTPLSSPVTLGQPASISCRSGQSIVHSDGNTYLEWLQQRPGQPPRLLIYKVSNRFSGVPDRFSGSGAGTDFTLKISRVEAEDVGVYYCFQGSHIPWTFGGGTKVEIKR | 0.128 nM |
| PR302341-6 (antibody, human IgG1, kappa, V domains shown) VH: EVQLQQSGPELVKPGASVKMSCKASGYTFTDYFMKWVKQSHGESLEWIGVINPNNGDIFYNQKFKGKATLTVDKSSSTAFMQLNSLTSEDSAVYSCARGTDRALFAYWGQGTLVAVSA VL: DVVMTQTPLSLSVTPGQPASISCRSGQSIVHSDGNTYLEWYLQKPGQSPQLLIYKVSNRFSGVPDRFSGSGSGTDFTLKISRVEAEDLGVYYCFQGSHIPWTFGGGTKVEIKR | 0.363 nM |
| PR302341-21 (antibody, human IgG1, kappa, V domains shown) VH: QVQLVQSGAEVKKPGASVKVSCKASGYTFTDYFMKWVRQAPGQRLEWMGVINPNNGDIFYNQKFKGRVTITVDKSASTAYMELSSLRSEDTAVYYCARGTDRALFAYWGQGTLVTVSS VL: DVVMTQSPLSLPVTLGQPASISCRSGQSIVHSDGNTYLEWYQQRPGQSPRLLIYKVSNRFSGVPDRFSGSGSGTDFTLKISRVEAEDLGVYYCFQGSHIPWTFGGGTKVEIKR | 0.177 nM |
| PR302341-5 (antibody, human IgG1, kappa, V domains shown) VH: EVQLQQSGPELVKPGASVKMSCKASGYTFTDYFMKWVKQSHGESLEWIGVINPNNGDIFYNQKFKGKATLTVDKSSSTAFMQLNSLTSEDSAVYSCARGTDRALFAYWGQGTLVAVSA VL: DIVMTQTPLSLSVTPGQPASISCRSGQSIVHSDGNTYLEWYLQKPGQSPQLLIYKVSNRFSGVPDRFSGSGSGTDFTLKISRVEAEDVGVYYCFQGSHIPWTFGGGTKVEIKR | 0.73 nM |
| PR302341-8 (antibody, human IgG1, kappa, V domains shown) VH: QVQLVQSGAEVKKPGASVKVSCKASGYTFTDYFMKWVRQAPGQGLEWMGVINPNNGDIFYNQKFKGRVTMTVDKSTSTAYMELSSLRSEDTAVYYCARGTDRALFAYWGQGTLVTVSS VL: DVVMTQSPLSLPVTLGQPASISCRSGQSIVHSDGNTYLEWYQQRPGQSPRLLIYKVSNRFSGVPDRFSGSGSGTDFTLKISRVEAEDLGVYYCFQGSHIPWTFGGGTKVEIKR | 0.165 nM |
| PR302341-1 (antibody, human IgG1, kappa, V domains shown) VH: EVQLQQSGPELVKPGASVKMSCKASGYTFTDYFMKWVKQSHGESLEWIGVINPNNGDIFYNQKFKGKATLTVDKSSSTAFMQLNSLTSEDSAVYSCARGTDRALFAYWGQGTLVAVSA VL: DVVMTQSPLSLPVTLGQPASISCRSGQSIVHSDGNTYLEWFQQRPGQSPRRLIYKVSNRFSGVPDRFSGSGSGTDFTLKISRVEAEDVGVYYCFQGSHIPWTFGGGTKVEIKR | 0.397 nM |
| PR302341-7 (antibody, human IgG1, kappa, V domains shown) VH: QVQLVQSGAEVKKPGASVKVSCKASGYTFTDYFMKWVRQAPGQGLEWMGVINPNNGDIFYNQKFKGRVTMTVDKSTSTAYMELSSLRSEDTAVYYCARGTDRALFAYWGQGTLVTVSS VL: DVVMTQSPLSLPVTLGQPASISCRSGQSIVHSDGNTYLEWFQQRPGQSPRRLIYKVSNRFSGVPDRFSGSGSGTDFTLKISRVEAEDVGVYYCFQGSHIPWTFGGGTKVEIKR | 0.23 nM |
| PR302341-9 (antibody, human IgG1, kappa, V domains shown) VH: QVQLVQSGAEVKKPGASVKVSCKASGYTFTDYFMKWVRQAPGQGLEWMGVINPNNGDIFYNQKFKGRVTMTVDKSTSTAYMELSSLRSEDTAVYYCARGTDRALFAYWGQGTLVTVSS VL: DIVMTQTPLSSPVTLGQPASISCRSGQSIVHSDGNTYLEWLQQRPGQPPRLLIYKVSNRFSGVPDRFSGSGAGTDFTLKISRVEAEDVGVYYCFQGSHIPWTFGGGTKVEIKR | 0.234 nM |
| PR302341-24 (antibody, human IgG1, kappa, V domains shown) VH: QVQLVQSGAEVKKPGASVKVSCKASGYTFTDYFMKWVRQAPGQRLEWMGVINPNNGDIFYNQKFKGRVTITVDKSASTAYMELSSLRSEDTAVYYCARGTDRALFAYWGQGTLVTVSS VL: DVVMTQTPLSSPVTLGQPASISCRSGQSIVHSDGNTYLEWYQQRPGQPPRLLIYKVSNRFSGVPDRFSGSGAGTDFTLKISRVEAEDLGVYYCFQGSHIPWTFGGGTKVEIKR | 0.192 nM |

Continued, values first:

| hCRHR1-Luc 0.5 nM CRH IC50 | Binder |
| --- | --- |
| 0.139 nM and 0.231 nM | PR302341 (antibody, human IgG1, kappa, V domains shown) VH: EVQLQQSGPELVKPGASVKMSCKASGYTFTDYFMKWVKQSHGESLEWIGVINPNNGDIFYNQKFKGKATLTVDKSSSTAFMQLNSLTSEDSAVYSCARGTDRALFAYWGQGTLVAVSA VL: DVLMTQTPLSLPVSLGDQASISCRSGQSIVHSDGNTYLEWYLQRPGQSPRLLIYKVSNRFSGVPDRFSGSGSGTDFTLKISRVGAEDLGIYYCFQGSHIPWTFGGGTKLEVKR |
| 0.121 nM | PR302341-19 (antibody, human IgG1, kappa, V domains shown) VH: QVQLVQSGAEVKKPGASVKVSCKASGYTFTDYFMKWVRQAPGQGLEWMGVINPNNGDIFYNQKFKGRVTMTRDTSTSTVYMELSSLRSEDTAVYYCARGTDRALFAYWGQGTLVTVSS VL: DVVMTQSPLSLPVTLGQPASISCRSGQSIVHSDGNTYLEWYQQRPGQSPRLLIYKVSNRFSGVPDRFSGSGSGTDFTLKISRVEAEDLGVYYCFQGSHIPWTFGGGTKVEIKR |
| 0.162 nM | PR302341-20 (antibody, human IgG1, kappa, V domains shown) VH: QVQLVQSGAEVKKPGASVKVSCKASGYTFTDYFMKWVRQAPGQRLEWMGVINPNNGDIFYNQKFKGRVTITRDTSASTAYMELSSLRSEDTAVYYCARGTDRALFAYWGQGTLVTVSS VL: DVVMTQSPLSLPVTLGQPASISCRSGQSIVHSDGNTYLEWYQQRPGQSPRLLIYKVSNRFSGVPDRFSGSGSGTDFTLKISRVEAEDLGVYYCFQGSHIPWTFGGGTKVEIKR |
| 0.124 nM | PR302341-15 (antibody, human IgG1, kappa, V domains shown) VH: QVQLVQSGAEVKKPGASVKVSCKASGYTFTDYFMKWVRQAPGQRLEWMGVINPNNGDIFYNQKFKGRVTITRDTSASTAYMELSSLRSEDTAVYYCARGTDRALFAYWGQGTLVTVSS VL: DVLMTQTPLSLPVSLGDQASISCRSGQSIVHSDGNTYLEWYLQRPGQSPRLLIYKVSNRFSGVPDRFSGSGSGTDFTLKISRVGAEDLGIYYCFQGSHIPWTFGGGTKLEVKR |
| 0.107 nM | PR302341-4 (antibody, human IgG1, kappa, V domains shown) VH: EVQLQQSGPELVKPGASVKMSCKASGYTFTDYFMKWVKQSHGESLEWIGVINPNNGDIFYNQKFKGKATLTVDKSSSTAFMQLNSLTSEDSAVYSCARGTDRALFAYWGQGTLVAVSA VL: DVVMTQTPLSSPVTLGQPASISCRSGQSIVHSDGNTYLEWYQQRPGQPPRLLIYKVSNRFSGVPDRFSGSGAGTDFTLKISRVEAEDLGVYYCFQGSHIPWTFGGGTKVEIKR |
| 0.168 nM | PR302341-2 (antibody, human IgG1, kappa, V domains shown) VH: EVQLQQSGPELVKPGASVKMSCKASGYTFTDYFMKWVKQSHGESLEWIGVINPNNGDIFYNQKFKGKATLTVDKSSSTAFMQLNSLTSEDSAVYSCARGTDRALFAYWGQGTLVAVSA VL: DVVMTQSPLSLPVTLGQPASISCRSGQSIVHSDGNTYLEWYQQRPGQSPRLLIYKVSNRFSGVPDRFSGSGSGTDFTLKISRVEAEDLGVYYCFQGSHIPWTFGGGTKVEIKR |
| 0.124 nM | PR302341-13 (antibody, human IgG1, kappa, V domains shown) VH: QVQLVQSGAEVKKPGASVKVSCKASGYTFTDYFMKWVRQAPGQGLEWMGVINPNNGDIFYNQKFKGRVTMTRDTSTSTVYMELSSLRSEDTAVYYCARGTDRALFAYWGQGTLVTVSS VL: DVLMTQTPLSLPVSLGDQASISCRSGQSIVHSDGNTYLEWYLQRPGQSPRLLIYKVSNRFSGVPDRFSGSGSGTDFTLKISRVGAEDLGIYYCFQGSHIPWTFGGGTKLEVKR |
| 0.225 nM | PR302341-16 (antibody, human IgG1, kappa, V domains shown) VH: QVQLVQSGAEVKKPGASVKVSCKASGYTFTDYFMKWVRQAPGQRLEWMGVINPNNGDIFYNQKFKGRVTITVDKSASTAYMELSSLRSEDTAVYYCARGTDRALFAYWGQGTLVTVSS VL: DVLMTQTPLSLPVSLGDQASISCRSGQSIVHSDGNTYLEWYLQRPGQSPRLLIYKVSNRFSGVPDRFSGSGSGTDFTLKISRVGAEDLGIYYCFQGSHIPWTFGGGTKLEVKR |
| 0.075 nM | PR302341-14 (antibody, human IgG1, kappa, V domains shown) VH: QVQLVQSGAEVKKPGASVKVSCKASGYTFTDYFMKWVRQAPGQGLEWMGVINPNNGDIFYNQKFKGRVTMTVDKSTSTAYMELSSLRSEDTAVYYCARGTDRALFAYWGQGTLVTVSS VL: DVLMTQTPLSLPVSLGDQASISCRSGQSIVHSDGNTYLEWYLQRPGQSPRLLIYKVSNRFSGVPDRFSGSGSGTDFTLKISRVGAEDLGIYYCFQGSHIPWTFGGGTKLEVKR |
| 0.25 nM | PR302341-12 (antibody, human IgG1, kappa, V domains shown) VH: QVQLVQSGAEVKKPGASVKVSCKASGYTFTDYFMKWVRQAPGQGLEWMGVINPNNGDIFYNQKFKGRVTMTVDKSTSTAYMELSSLRSEDTAVYYCARGTDRALFAYWGQGTLVTVSS VL: DVVMTQTPLSLSVTPGQPASISCRSGQSIVHSDGNTYLEWYLQKPGQSPQLLIYKVSNRFSGVPDRFSGSGSGTDFTLKISRVEAEDLGVYYCFQGSHIPWTFGGGTKVEIKR |
| 0.11 nM | PR302341-10 (antibody, human IgG1, kappa, V domains shown) VH: QVQLVQSGAEVKKPGASVKVSCKASGYTFTDYFMKWVRQAPGQGLEWMGVINPNNGDIFYNQKFKGRVTMTVDKSTSTAYMELSSLRSEDTAVYYCARGTDRALFAYWGQGTLVTVSS VL: DVVMTQTPLSSPVTLGQPASISCRSGQSIVHSDGNTYLEWYQQRPGQPPRLLIYKVSNRFSGVPDRFSGSGAGTDFTLKISRVEAEDLGVYYCFQGSHIPWTFGGGTKVEIKR |
| 0.467 nM | PR302341-11 (antibody, human IgG1, kappa, V domains shown) VH: QVQLVQSGAEVKKPGASVKVSCKASGYTFTDYFMKWVRQAPGQGLEWMGVINPNNGDIFYNQKFKGRVTMTVDKSTSTAYMELSSLRSEDTAVYYCARGTDRALFAYWGQGTLVTVSS VL: DIVMTQTPLSLSVTPGQPASISCRSGQSIVHSDGNTYLEWYLQKPGQSPQLLIYKVSNRFSGVPDRFSGSGSGTDFTLKISRVEAEDVGVYYCFQGSHIPWTFGGGTKVEIKR |
